In patent US20250388907A1, “MULTISPECIFIC POLYNUCLEOTIDE NANOSTRUCTURES FOR CANCER DETECTION AND THERAPY” (Atom Bioworks, Inc., priority 2021, published 2025):
Several values for one entry are separate records, joined by “and”; a condition that tells them apart may be missing. Identical values can stand only once. Like-named read-outs stand apart in the source and are kept apart here.

B1: CY30: CD123-binding aptamer, SEQ ID NO: 5 (nucleic acid)
chain: TGCGTGTGTACTGTGTCTGGTCCCGTAGCTACTAGCGAACTCCCTGCCTCTTAGGGATTTGGGCGG
modifications: listed as DNA, chemistry not fully specified
B2: ABWT050904: CD117-binding aptamer, SEQ ID NO: 2 (nucleic acid)
chain: ATCCAGAGTGACGCAGCACGAGCCTTGTGTCGTTCGGAGTGCTGGTCCACGACTACTATTGGACACGGTGGCTTAGT
modifications: listed as DNA, chemistry not fully specified
B3: ABWT050902 (ssDNA)
DNA: ATCCAGAGTGACGCAGCACCGCCCATGTCGAATAGGTGCCACGTAGGGACTTGGACACGGTGGCTTAGT
B4: ABWT050902: CD117-binding aptamer, SEQ ID NO: 1; FAM-labeled or daunorubicin-loaded in tests (nucleic acid)
chain: B3 DNA
modifications: FAM label or daunorubicin loading in tests, chemistry not fully specified
B5: Oligo-Protein G conjugates: docking oligo conjugated via sulfo-SMCC linker to 6xHis-tagged recombinant Protein G (conjugate)
chain: TYKLILNGKTLKGETTTEAVDAATAEKVFKQYANDNGVDGEWTYDDATKTFTVTEKPEVIDASELTPAVTTYKLVINGKTLKGETTTEAVDAATAEKVFKQYANDNGVDGEWTYDDATKTFTVTEKPEVIDASELTPAVTTYKLVINGKTLKGETTTKAVDAETAEKAFKQYANDNGVDGVWTYDDATKTFTVTE
B6: 3x3v2-Conjugate: Oligo-Protein G conjugates immobilized on 3x3v2 nets (conjugate)
chain: B5 chain
B7: ZW25: CD123-binding aptamer, SEQ ID NO: 4 (nucleic acid)
chain: TGCGTGTGTAGTGTGTCTGGGCTACATCGATGAGCTGCCTAGGGTCCCTCTTAGGGATTTGGGCGGG
modifications: listed as DNA, chemistry not fully specified
B8: #1: CD117-binding aptamer, SEQ ID NO: 3 (nucleic acid)
chain: GAGGCATACCAGCTTATTCAAGGGGCCGGGGCAAGGGGGGGGTACCGTGGTAGGACATAGTAAGTGCAATCTGCGAA
modifications: listed as DNA, chemistry not fully specified

Assays:
KASUMI-1 cells = test: MTT cell killing assay; type: cell-based, Human; conditions: for ΔFold over Free (3x3v1): IC50 on 3x3v1 net versus free aptamer; for ΔFold over Free (TRD1): IC50 on TRD1 versus free aptamer
Protocol: (§1) Daunorubicin-loaded aptamers were then diluted across various concentrations: 4 μM, 2 μM, 0.2 μM, and 0.02 μM. Untreated cells were used as a negative killing control. 10% DMSO was used as a positive killing control. 40 μM daunorubicin was also used as a positive killing control but one that matched the current National Comprehensive Cancer Network (NCCN) guidelines for AML daunorubicin chemotherapy dosing. Cells were incubated with their respective treatments for 24 hours before they were washed with cell medium. After 48 hours, the viability of all cells were assessed using MTT assays. All conditions were performed in triplicate for standard error analysis. MM1S cells were used as negative control in the assays having aptamers at 4 μM and 2 μM, respectively.
Daunorubicin-loaded aptamers were prepared as described in Example 3. The killing activity of daunorubicin-loaded aptamers alone and daunorubicin-loaded aptamers on various networks of polynucleotides, i.e., 3x3v1 nets and TRD1 tiles on KASUMI-1 cells (an AML cell line) were assessed using the procedures as described in Example 3. Additional negative killing controls were added to control for any inherent nonspecific killing effects by the networks of polynucleotides or aptamers: “3x3v1 net (Empty)” is 3x3v1 net without aptamers (therefore, no daunorubicin), “TRD1 (Empty)” is TRD1 without aptamers (therefore, no daunorubicin), “Scramble Aptamer 1”, “Scramble Aptamer 2”, and “Scramble Aptamer 3” were three oligos with lengths and A:T:C:G ratios similar to the tested aptamers but whose nucleotide sequences were randomized but also loaded with daunorubicin. 0.4 μM Daunorubicin were intercalated into aptamers across all conditions.
KASUMI-1 cells were cultured and incubated with all five aptamers (each loaded with daunorubicin) across six concentrations: 10 nM, 1 nM, […] and 100 fM. 10% DMSO, 40 μM daunorubicin, 4 μM daunorubicin, and 0.4 μM daunorubicin were used as positive killing controls. 3x3v1 net (Empty), TRD1 (Empty), Scramble Aptamer 1, Scramble Aptamer 2, and Scramble Aptamer 3 were negative killing controls. Incubation and washing procedures were as described in Experiment 3. After 48 hours, the samples were measured for viability via MTT assay. Data points were plotted and unpaired student's t—tests were performed to determine significance. For IC50 calculations, the concentrations were transformed to the logarithmic equivalent followed by normalization of the relative cell viability on a scale of 0-100. The normalized viability was subjected to nonlinear regression against the logarithmically converted inhibitor concentrations in the three parameters variable slope mode to determine the IC50. […]
ABWT050902 aptamers with D1 dock sites were loaded with daunorubicin as described previously. Aptamers were then immobilized on PTR45 and PTR86 (please refer to FIG. 17B and FIG. 17C). PTR45 was loaded with 20 ABWT050902 D1 aptamers, whereas PTR86 were loaded with 40. KASUMI-1 cells were grown, incubated with analytes, and measured via MTT cell killing assays as described previously.

MM1S cells = test: MTT cell killing assay; type: cell-based, Human; conditions: Example 3: 24 hours treatment, MTT after 48 hours; daunorubicin 40 μM; daunorubicin-loaded aptamers 4 μM and 2 μM
Protocol: as §1
Daunorubicin-loaded aptamers were prepared as described in Example 3. The killing activity of daunorubicin-loaded aptamers alone and daunorubicin-loaded aptamers on various networks of polynucleotides, i.e., 3x3v1 nets and TRD1 tiles on KASUMI-1 cells (an AML cell line) were assessed using the procedures as described in Example 3. […]

CD117 (c-KIT) = CD117 (c-KIT) (UniProt P10721 P10721:26-524); test: SPR; aptamer alone, CD117 immobilized on CM5 chip; conditions: tags: immobilized on Biacore CM5 chip; label: 5' FAM (flow cytometry)
CD117 (c-KIT), sequence (P10721 26-524, one chain of several): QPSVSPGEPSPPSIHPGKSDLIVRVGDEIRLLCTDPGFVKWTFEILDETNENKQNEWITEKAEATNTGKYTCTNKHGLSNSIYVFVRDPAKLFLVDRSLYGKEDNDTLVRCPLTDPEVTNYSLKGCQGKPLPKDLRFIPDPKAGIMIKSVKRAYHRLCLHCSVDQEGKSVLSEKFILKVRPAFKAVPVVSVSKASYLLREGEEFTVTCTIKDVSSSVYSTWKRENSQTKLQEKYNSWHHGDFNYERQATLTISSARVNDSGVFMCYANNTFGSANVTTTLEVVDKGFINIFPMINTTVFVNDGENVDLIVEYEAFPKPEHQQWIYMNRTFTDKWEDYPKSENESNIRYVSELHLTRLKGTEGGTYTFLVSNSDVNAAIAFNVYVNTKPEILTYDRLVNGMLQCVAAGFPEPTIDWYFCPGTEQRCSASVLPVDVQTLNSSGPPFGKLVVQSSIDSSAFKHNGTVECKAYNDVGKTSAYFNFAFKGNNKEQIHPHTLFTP
Protocol: Next, surface plasmon resonance (SPR) assays were performed to assess the ability of networks of polynucleotides to improve the binding affinity of an aptamer. Aptamer ABWT050902 (a CD 117 binder) was folded as previously described. Aptamers alone, and aptamers on a TRD1 (as illustrated in FIG. 2) were prepared at varying concentrations and flowed over a CM5 sensor chip on a Biacore SPR immobilized with CD117. The inter-binder distances of the 96 uniquely addressable docking loci for CD 117 binders was 5 nm. Concentrations were normalized to total aptamer amount.

CD117 = CD117 (Homo sapiens, UniProt P10721); test: SPR binding assay, Biacore CM5 chip; conditions: CD117 immobilized on CM5 chip, concentrations normalized to total aptamer amount
CD117, sequence (P10721 26-976): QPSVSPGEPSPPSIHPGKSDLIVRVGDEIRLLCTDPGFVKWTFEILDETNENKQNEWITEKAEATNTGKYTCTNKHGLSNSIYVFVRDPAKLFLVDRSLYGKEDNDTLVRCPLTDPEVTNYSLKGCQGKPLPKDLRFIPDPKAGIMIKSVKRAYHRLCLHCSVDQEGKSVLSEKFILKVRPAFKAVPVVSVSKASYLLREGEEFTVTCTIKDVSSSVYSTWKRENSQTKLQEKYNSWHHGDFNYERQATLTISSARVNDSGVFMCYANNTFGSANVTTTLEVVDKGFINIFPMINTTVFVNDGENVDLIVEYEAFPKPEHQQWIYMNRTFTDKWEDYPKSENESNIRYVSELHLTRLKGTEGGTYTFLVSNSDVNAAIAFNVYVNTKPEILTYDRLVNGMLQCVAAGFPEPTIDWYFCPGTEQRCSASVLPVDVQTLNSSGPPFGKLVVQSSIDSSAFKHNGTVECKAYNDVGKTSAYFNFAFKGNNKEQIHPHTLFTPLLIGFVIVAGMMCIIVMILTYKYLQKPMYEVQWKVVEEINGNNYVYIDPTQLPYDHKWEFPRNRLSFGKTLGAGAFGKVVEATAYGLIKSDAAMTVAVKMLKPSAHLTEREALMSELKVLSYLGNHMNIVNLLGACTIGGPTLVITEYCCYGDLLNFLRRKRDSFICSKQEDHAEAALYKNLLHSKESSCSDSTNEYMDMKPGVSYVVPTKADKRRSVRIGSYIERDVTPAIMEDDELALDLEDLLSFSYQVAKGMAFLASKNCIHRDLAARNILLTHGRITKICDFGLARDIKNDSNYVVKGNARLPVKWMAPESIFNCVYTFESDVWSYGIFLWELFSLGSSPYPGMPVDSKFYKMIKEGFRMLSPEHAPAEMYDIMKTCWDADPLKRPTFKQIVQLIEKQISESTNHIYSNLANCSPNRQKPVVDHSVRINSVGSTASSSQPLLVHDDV

[1] = Kinetic fluorescent assay of daunorubicin release over time; conditions: free daunorubicin in supernatant buffer
Description: Despite both “ABWT050902 Alone, With Daunorubicin” and “ABWT050902 on TRD1” conditions beginning the assay at the same time, the former began the assay with higher fluorescence of 400.0+ RFUs compared to the latter. This is because more free daunorubicin was in the supernatant buffer of “ABWT050902 Alone, with Daunorubicin” compared to “ABWT050902 on TRD1”.

mouse IgG = test: SPR binding assay of Protein G activity, Biacore CM5 chip; conditions: mouse IgG immobilized on CM5 chip, equivalent conjugate amount
Protocol: We used a sulfo-SMCC linker to conjugate an oligo (complementary to 3x3v1 docking sites) bearing a 5′ amine to the N terminal cysteine sulfhydryl R group on 6xHis-tagged recombinant Protein G (the oligo also bore a 3′ biotin for later purification). This was performed at room temperature in 1x phosphate buffered saline (PBS), pH 7.4. Oligo functionalization with sulfo-SMCC was performed first (as is typical), followed by two Zeba column (7 kDa molecular weight cutoff) cleanups to remove the excess sulfo-SMCC. Functionalized oligos were then placed in molar excess to Cys-Protein G. Purification proceeded via usage of monomeric avidin resin (to remove any unconjugated Cys-Protein G) followed by Ni^2+-NTA resin (to remove any unconjugated oligos). Oligo-Protein G conjugates were then docked to 3x3v1 (27 docking sites) and 3x3v2 (9 docking sites) nets and assayed for activity on SPR binding assays.

[2] = KASUMI-1, MTT after 48 hours, daunorubicin or daunorubicin-loaded aptamer alone, read-out: IC50 (pM) Free
[3] = KASUMI-1, daunorubicin-loaded aptamer immobilized on 3x3v1 net, read-out: IC50 (pM) 3x3v1
[4] = KASUMI-1, daunorubicin-loaded aptamer immobilized on 3x3v1 net, read-out: IC90 (pM) 3x3v1
[5] = KASUMI-1, daunorubicin-loaded aptamer immobilized on TRD1, read-out: IC50 (pM) TRD1
[6] = KASUMI-1, daunorubicin-loaded aptamer immobilized on TRD1, read-out: IC90 (pM) TRD1

Row | Molecule | ΔFold over Free (3x3v1) (KASUMI-1 cells) | ΔFold over Free (TRD1) (KASUMI-1 cells) | IC50 (KASUMI-1 cells; [2]) | IC50 (KASUMI-1 cells; [3]) | IC90 (KASUMI-1 cells; [4]) | IC50 (KASUMI-1 cells; [5]) | IC90 (KASUMI-1 cells; [6]) | other results
1 | COc1cccc2c1C(=O)c1c(O)c3c(c(O)c1C2=O)C[C@@](O)(C(C)=O)C[C@@H]3O[C@H]1C[C@H](N)[C@H](O)[C@H](C)O1 [Daunorubicin, daunorubicin, reference compound] |  |  |  |  |  |  |  | killing of KASUMI-1 cells (KASUMI-1 cells; Example 3: 24 hours treatment, MTT after 48 hours, daunorubicin 40 μM, daunorubicin-loaded aptamers 4-0.02 μM): approximately 20%; IC50 (KASUMI-1 cells; Homo sapiens, Kasumi 1, 48 h, read-out: IC50 (pM) Free): 58400 pM; killing of MM1S cells (MM1S cells): approximately 50%
2 | B1 | 5.5 x | 38.1 x | 5070 pM | 931 pM | 8700 pM | 133 pM | 93600 pM | 
3 | B2 | 4.2x |  | 976 pM | 233 pM | 17600 pM |  |  | 
4 | B3 |  |  |  |  |  |  |  | Kd (CD117 (c-KIT)): 1220 nM
5 | B4 | 2.4x |  | 529 pM | 218 pM | 61800 pM |  |  | Kd (CD117): ~1220 nM and 1220 nM; fluorescence at the beginning of the daunorubicin release assay [1]: ≥ 400.0 RFUs
6 | B5 |  |  |  |  |  |  |  | relative response, binding to mouse IgG (mouse IgG): ~145 RUs
7 | B6 |  |  |  |  |  |  |  | relative response, binding to mouse IgG (mouse IgG): ~170 RUs
8 | B7 | 8.0 x | 34.7 x | 3540 pM | 445 pM | 128000 pM | 102 pM | 7830 pM | 
9 | B8 | 3.6x | 5.6x | 531 pM | 147 pM | 208000 pM | 95 pM | 165000 pM | IC90 (KASUMI-1 cells; KASUMI-1, daunorubicin-loaded aptamer alone, read-out: IC90 (pM) Free): 108000 pM
